Data: the RNAGym collection of RNA variant scans (doi:10.1101/gr.219683.116)

B1: mRNA-splicing (parent)
chain: AGUUGCUGCUGGGAGCUCCAGCACAGUGAAAUGGACAGAAGGGCAGAGCAA

Variants of: B1
Test: exon inclusion enrichment index; higher = more inclusion; WT1 exon 5 minigene, HEK293
With AGUUAACACAGGGAGCUCCAGCACAGUGAAAUGGACAGAAGGGCAGAGCAA the “exon inclusion enrichment index” value was 0.063. For AGUUAACGAUGGGAGCUCCAGCACAGUGAAAUGGACAGAAGGGCAGAGCAA, the “exon inclusion enrichment index” value was 0.838. In the case of AGUUAGUCUCGGGAGCUCCAGCACAGUGAAAUGGACAGAAGGGCAGAGCAA, the “exon inclusion enrichment index” value is reported as 0.0763. In the case of AGUUAAAACCGGGAGCUCCAGCACAGUGAAAUGGACAGAAGGGCAGAGCAA, the “exon inclusion enrichment index” value is reported as 0.831. With AGUGAUAUAUGGGAGCUCCAGCACAGUGAAAUGGACAGAAGGGCAGAGCAA the “exon inclusion enrichment index” value was 0.156. With AGUUAGGGAUGGGAGCUCCCUCACAGUGAAAUGGACAGAAGGGCAGAGCAA the “exon inclusion enrichment index” value was 0.00104. For AGUUAGGGAUGGGAGCUCCCCCACAGUGAAAUGGACAGAAGGGCAGAGCAA, the “exon inclusion enrichment index” value was 0.000907. In the case of AGUUAGGGAUGGGAGCUCCCACACAGUGAAAUGGACAGAAGGGCAGAGCAA, the “exon inclusion enrichment index” value is reported as 0.00106. For AGUGUCCACCGGGAGCUCCAGCACAGUGAAAUGGACAGAAGGGCAGAGCAA, the “exon inclusion enrichment index” value was 2.16. For AGUUAGGGCUGGGAGCUCCAGCACAGUGAAAUGGACAGAAGGGCAGAGCAA, the “exon inclusion enrichment index” value was 0.00284. With AGUUAGGGAUGGGGUCUCCAGCACAGUGAAAUGGACAGAAGGGCAGAGCAA the “exon inclusion enrichment index” value was 0.00301. In the case of AGUUAGGGAUGGGGCCUCCAGCACAGUGAAAUGGACAGAAGGGCAGAGCAA, the “exon inclusion enrichment index” value is reported as 0.00222. With AGUUAGGGAUGGGGACUCCAGCACAGUGAAAUGGACAGAAGGGCAGAGCAA the “exon inclusion enrichment index” value was 0.00342. For AGUGGCUUUUGGGAGCUCCAGCACAGUGAAAUGGACAGAAGGGCAGAGCAA, the “exon inclusion enrichment index” value was 0.193. In the case of AGUUAGACAUGGGAGCUCCAGCACAGUGAAAUGGACAGAAGGGCAGAGCAA, the “exon inclusion enrichment index” value is reported as 0.0442. For AGUUAGGGAUGGGCACUCCAGCACAGUGAAAUGGACAGAAGGGCAGAGCAA, the “exon inclusion enrichment index” value was 0.000979. For AGUUAGGGAUGGGCUCUCCAGCACAGUGAAAUGGACAGAAGGGCAGAGCAA, the “exon inclusion enrichment index” value was 0.000655. In the case of AGUUAGGGAUGGGCCCUCCAGCACAGUGAAAUGGACAGAAGGGCAGAGCAA, the “exon inclusion enrichment index” value is reported as 0.000633. In the case of AGUGACCACCGGGAGCUCCAGCACAGUGAAAUGGACAGAAGGGCAGAGCAA, the “exon inclusion enrichment index” value is reported as 3.1. In the case of AGUGUUUCUCGGGAGCUCCAGCACAGUGAAAUGGACAGAAGGGCAGAGCAA, the “exon inclusion enrichment index” value is reported as 0.824. In the case of AGUUAAUACCGGGAGCUCCAGCACAGUGAAAUGGACAGAAGGGCAGAGCAA, the “exon inclusion enrichment index” value is reported as 0.811. With AGUUAAGGAUGGGAGCUCCAGCACAGUGAAAUGGACAGAAGGGCAGAGCAA the “exon inclusion enrichment index” value was 0.107. With AGUGCACGACGGGAGCUCCAGCACAGUGAAAUGGACAGAAGGGCAGAGCAA the “exon inclusion enrichment index” value was 2.46. In the case of AGUUAAUUAUGGGAGCUCCAGCACAGUGAAAUGGACAGAAGGGCAGAGCAA, the “exon inclusion enrichment index” value is reported as 0.0357. For AGUUAAUUUUGGGAGCUCCAGCACAGUGAAAUGGACAGAAGGGCAGAGCAA, the “exon inclusion enrichment index” value was 0.0445. In the case of AGUUAGCAAUGGGAGCUCCAGCACAGUGAAAUGGACAGAAGGGCAGAGCAA, the “exon inclusion enrichment index” value is reported as 0.0448. In the case of AGUUAACGCCGGGAGCUCCAGCACAGUGAAAUGGACAGAAGGGCAGAGCAA, the “exon inclusion enrichment index” value is reported as 2.4. In the case of AGUGCUUCUCGGGAGCUCCAGCACAGUGAAAUGGACAGAAGGGCAGAGCAA, the “exon inclusion enrichment index” value is reported as 1.14. For AGUUAACGACGGGAGCUCCAGCACAGUGAAAUGGACAGAAGGGCAGAGCAA, the “exon inclusion enrichment index” value was 2.47. For AGUUAGGGAUGGGGGCUCCAGCACAGUGAAAUGGACAGAAGGGCAGAGCAA, the “exon inclusion enrichment index” value was 0.00241. For AGUUAGGGAUGGGCGCUCCAGCACAGUGAAAUGGACAGAAGGGCAGAGCAA, the “exon inclusion enrichment index” value was 0.000759. In the case of AGUUAGGGAUGGGUGCUCCAGCACAGUGAAAUGGACAGAAGGGCAGAGCAA, the “exon inclusion enrichment index” value is reported as 0.000641. With AGUGCGCGCCGGGAGCUCCAGCACAGUGAAAUGGACAGAAGGGCAGAGCAA the “exon inclusion enrichment index” value was 0.681. In the case of AGUGUUAUAUGGGAGCUCCAGCACAGUGAAAUGGACAGAAGGGCAGAGCAA, the “exon inclusion enrichment index” value is reported as 0.0955. For AGUUAGGGAUGGGAGCUCCCGCACAGUGAAAUGGACAGAAGGGCAGAGCAA, the “exon inclusion enrichment index” value was 0.00932. In the case of AGUUAGGGAUGGGAGCUCCUGCACAGUGAAAUGGACAGAAGGGCAGAGCAA, the “exon inclusion enrichment index” value is reported as 0.00146. For AGUUAGGGAUGGGAGCUCCGGCACAGUGAAAUGGACAGAAGGGCAGAGCAA, the “exon inclusion enrichment index” value was 0.00245. For AGUGGCCACCGGGAGCUCCAGCACAGUGAAAUGGACAGAAGGGCAGAGCAA, the “exon inclusion enrichment index” value was 1.53. In the case of AGUUAGGGAUGGGAGCUCCAGCGAAGUGAAAUGGACAGAAGGGCAGAGCAA, the “exon inclusion enrichment index” value is reported as 0.00158. In the case of AGUUAGGGAUGGGAGCUCCAGCGGAGUGAAAUGGACAGAAGGGCAGAGCAA, the “exon inclusion enrichment index” value is reported as 0.0109. In the case of AGUUAGGGAUGGGAGCUCCAGCGUAGUGAAAUGGACAGAAGGGCAGAGCAA, the “exon inclusion enrichment index” value is reported as 0.000891. With AGUGUGCGCCGGGAGCUCCAGCACAGUGAAAUGGACAGAAGGGCAGAGCAA the “exon inclusion enrichment index” value was 0.917. For AGUUAGCCAUGGGAGCUCCAGCACAGUGAAAUGGACAGAAGGGCAGAGCAA, the “exon inclusion enrichment index” value was 0.0805. For AGUUAACUAUGGGAGCUCCAGCACAGUGAAAUGGACAGAAGGGCAGAGCAA, the “exon inclusion enrichment index” value was 0.165. For AGUUAGCGACGGGAGCUCCAGCACAGUGAAAUGGACAGAAGGGCAGAGCAA, the “exon inclusion enrichment index” value was 0.602. For AGUUAAGUAUGGGAGCUCCAGCACAGUGAAAUGGACAGAAGGGCAGAGCAA, the “exon inclusion enrichment index” value was 0.0264. In the case of AGUUAGAUAUGGGAGCUCCAGCACAGUGAAAUGGACAGAAGGGCAGAGCAA, the “exon inclusion enrichment index” value is reported as 0.00788. For AGUUAGGGAUGGGAGCUCCUACACAGUGAAAUGGACAGAAGGGCAGAGCAA, the “exon inclusion enrichment index” value was 0.000815. For AGUUAGGGAUGGGAGCUCCUCCACAGUGAAAUGGACAGAAGGGCAGAGCAA, the “exon inclusion enrichment index” value was 0.00185. For AGUUAGGGAUGGGAGCUCCUUCACAGUGAAAUGGACAGAAGGGCAGAGCAA, the “exon inclusion enrichment index” value was 0.000871. With AGUGCCCACCGGGAGCUCCAGCACAGUGAAAUGGACAGAAGGGCAGAGCAA the “exon inclusion enrichment index” value was 1.75.
